Columns and labels:
[1] = target: CLAVATA2 (CLV2; At1g65380) (Arabidopsis) (UniProt O80809); experiment: cell-based or functional assay
[2] = target: CORYNE (CRN; At5g13290) (Arabidopsis) (UniProt Q9LYU7); experiment: cell-based or functional assay
UniProt Q9LYU7, sequence (Q9LYU7 34-401): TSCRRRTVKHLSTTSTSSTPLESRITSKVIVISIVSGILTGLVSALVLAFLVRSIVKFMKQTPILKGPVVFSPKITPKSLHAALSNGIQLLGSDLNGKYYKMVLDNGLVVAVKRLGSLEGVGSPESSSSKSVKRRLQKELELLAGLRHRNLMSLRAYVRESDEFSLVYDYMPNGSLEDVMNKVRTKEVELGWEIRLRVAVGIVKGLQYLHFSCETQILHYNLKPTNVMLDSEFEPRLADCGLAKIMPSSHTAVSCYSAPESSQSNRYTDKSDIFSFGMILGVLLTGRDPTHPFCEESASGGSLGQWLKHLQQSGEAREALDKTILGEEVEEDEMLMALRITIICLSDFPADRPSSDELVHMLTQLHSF

UniProt O80809, sequence (O80809 26-720): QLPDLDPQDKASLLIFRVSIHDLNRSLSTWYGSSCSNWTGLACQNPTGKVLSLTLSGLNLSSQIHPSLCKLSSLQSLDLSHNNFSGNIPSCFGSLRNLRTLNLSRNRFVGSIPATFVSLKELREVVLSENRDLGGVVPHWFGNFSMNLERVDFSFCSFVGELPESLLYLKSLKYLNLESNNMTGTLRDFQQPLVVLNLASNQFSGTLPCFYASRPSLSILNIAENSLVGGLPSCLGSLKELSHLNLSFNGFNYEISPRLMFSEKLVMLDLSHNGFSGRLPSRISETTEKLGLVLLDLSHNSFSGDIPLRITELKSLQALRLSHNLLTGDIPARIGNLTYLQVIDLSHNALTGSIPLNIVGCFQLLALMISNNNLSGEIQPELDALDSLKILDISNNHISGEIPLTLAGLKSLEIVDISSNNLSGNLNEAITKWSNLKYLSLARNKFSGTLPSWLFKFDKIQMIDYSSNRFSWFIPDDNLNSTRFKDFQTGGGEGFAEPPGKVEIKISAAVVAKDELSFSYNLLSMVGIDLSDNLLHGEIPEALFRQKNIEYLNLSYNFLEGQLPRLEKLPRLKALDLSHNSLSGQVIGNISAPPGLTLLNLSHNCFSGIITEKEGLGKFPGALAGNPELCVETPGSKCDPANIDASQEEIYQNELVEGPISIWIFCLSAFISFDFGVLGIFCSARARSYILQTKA

Substance | wus-like (%) T1 shoot phenotypes, overexpression in clv2-1 [1] [%] | wus-like (%) T1 shoot phenotypes, overexpression in crn-1 [2] [%]
HgCLE2ΔSP (soybean cyst nematode CLE protein, overexpressed in Arabidopsis) (ligand) | 0 | 0
HsCLE1 (beet cyst nematode CLE protein, overexpressed in Arabidopsis) (ligand) | 0 | 0
HsCLE2 (beet cyst nematode CLE protein, overexpressed in Arabidopsis) (ligand) | 0 | 0
